Reference: US20120077957A1 (PALATIN TECHNOLOGIES, published 2012)
Numbered stars: 1 amine (or outer) side, 2 acyl side, 3 side chain; on linkers, the order of the positions; unused ones are H or OH. Bridge positions count the residues as written; N and C are the ends. Square brackets hold non-standard residues; d marks the D form. * marks the point of attachment. Ser(Bzl) = O-benzyl-serine, O=C([C@H](COCc1ccccc1)N[*:1])[*:2]; Pro(trans-4-NH2) = O=C([C@@H]1C[C@@H](N[*:3])CN1[*:1])[*:2]; Met(O2) = CS(=O)(=O)CC[C@H](N)C(=O)O; Hyp = O=C(O)[C@@H]1C[C@@H](O)CN1; Cit = NC(=O)NCCC[C@H](N)C(=O)O; Orn = NCCC[C@H](N)C(=O)O; Dab = NCC[C@H](N)C(=O)O; NHcPr = C1CC1N*

B1: Peptide No. 8: Ac-Arg-cyclo(Glu-Orn-D-Phe-Arg-Trp-Orn)-NH2 (peptide)
peptide: Ac-RE[Orn][dF]RW[Orn]-NH2
modifications: lactam 2-7
B2: Peptide No. 1: Ac-Nle-cyclo(Glu-His-D-Phe-Arg-Trp-Orn)-OH (peptide)
peptide: XEHFRWX
modifications: N-terminal acetyl; Nle at 1; D-Phe at 4; Orn at 7; side-chain lactam Glu2-Orn7; C-terminal -OH
B3: Asp...Lys analog of peptide No. 33: Ac-Arg-cyclo(Asp-Orn(Acetyl)-D-Phe-Arg-Trp-Lys)-NH2 (peptide)
peptide: Ac-RD[Orn](Ac)[dF]RWK-NH2
modifications: lactam 2-7
B4: Peptide No. 2: Ac-Nle-cyclo(Glu-His-D-Phe-Arg-Trp-Orn)-NH2 (peptide)
peptide: XEHFRWX
modifications: N-terminal acetyl; Nle at 1; D-Phe at 4; Orn at 7; side-chain lactam Glu2-Orn7; C-terminal amide (-NH2)
B5: Asp...Lys analog of peptide No. 21: Ac-cyclo(Asp-Gln-D-Phe-Arg-Trp-Lys)-NH2 (peptide)
peptide: Ac-DQ[dF]RWK-NH2
modifications: lactam 1-6
SMILES: CC(=O)N[C@H]1CC(=O)NCCCC[C@@H](C(N)=O)NC(=O)[C@H](Cc2c[nH]c3ccccc23)NC(=O)[C@H](CCCNC(=N)N)NC(=O)[C@@H](Cc2ccccc2)NC(=O)[C@H](CCC(N)=O)NC1=O
notes: also called Peptide Structure (Asp...Lys) in the row of No. 21
B6: Asp...Lys analog of peptide No. 18: Ac-Arg-cyclo(Asp-Dab(Acetyl)-D-Phe-Arg-Trp-Lys)-NH2 (peptide)
peptide: Ac-RD[Dab](Ac)[dF]RWK-NH2
modifications: lactam 2-7
SMILES: CC(=O)NCC[C@@H]1NC(=O)[C@@H](NC(=O)[C@H](CCCNC(=N)N)NC(C)=O)CC(=O)NCCCC[C@@H](C(N)=O)NC(=O)[C@H](Cc2c[nH]c3ccccc23)NC(=O)[C@H](CCCNC(=N)N)NC(=O)[C@@H](Cc2ccccc2)NC1=O
B7: Asp...Lys analog of peptides No. 3 and No. 37: Ac-Arg-cyclo(Asp-His-D-Phe-Arg-Trp-Lys)-OH (peptide)
peptide: Ac-RDH[dF]RWK-OH
modifications: lactam 2-7
B8: Asp...Lys analog of peptide No. 16: Ac-Arg-cyclo(Asp-Lys-D-Phe-Arg-Trp-Lys)-NH2 (peptide)
peptide: Ac-RDK[dF]RWK-NH2
modifications: lactam 2-7
notes: also called Peptide Structure (Asp...Lys) in the row of No. 16
B9: Asp...Lys analog of peptide No. 32: Ac-Arg-cyclo(Asp-Pro(4R-NH2)-D-Phe-Arg-Trp-Lys)-NH2 (peptide)
peptide: Ac-RD[Pro(trans-4-NH2)][dF]RWK-NH2
modifications: lactam 2-7
notes: also called Peptide Structure (Asp...Lys) in the row of No. 32
B10: Asp...Lys analog of peptide No. 20: Ac-Arg-cyclo(Asp-Asn-D-Phe-Arg-Trp-Lys)-OH (peptide)
peptide: Ac-RDN[dF]RWK-OH
modifications: lactam 2-7
notes: also called Peptide Structure (Asp...Lys) in the row of No. 20
B11: Asp...Lys analog of peptide No. 10: Ac-Arg-cyclo(Asp-Arg-D-Phe-Arg-Trp-Lys)-NH2 (peptide)
peptide: Ac-RDR[dF]RWK-NH2
modifications: lactam 2-7
B12: Asp...Lys analog of peptide No. 14: Ac-Arg-cyclo(Asp-Hyp-D-Phe-Arg-Trp-Lys)-NH2 (peptide)
peptide: Ac-RD[Hyp][dF]RWK-NH2
modifications: lactam 2-7
notes: also called Peptide Structure (Asp...Lys) in the row of No. 14
B13: Asp...Lys analog of peptide No. 13: Ac-Arg-cyclo(Asp-Met(O2)-D-Phe-Arg-Trp-Lys)-NH2 (peptide)
peptide: Ac-RD[Met(O2)][dF]RWK-NH2
modifications: lactam 2-7
notes: also called Peptide Structure (Asp...Lys) in the row of No. 13
B14: Asp...Lys analog of peptides No. 12 and No. 44: Ac-Arg-cyclo(Asp-Gln-D-Phe-Arg-Trp-Lys)-NH2 (peptide)
peptide: Ac-RDQ[dF]RWK-NH2
modifications: lactam 2-7
B15: Asp...Lys analog of peptide No. 9: Ac-Arg-cyclo(Asp-Arg-D-Phe-Arg-Trp-Lys)-OH (peptide)
peptide: Ac-RDR[dF]RWK-OH
modifications: lactam 2-7
B16: Asp...Lys analog of peptide No. 11: Ac-Arg-cyclo(Asp-Gln-D-Phe-Arg-Trp-Lys)-OH (peptide)
peptide: Ac-RDQ[dF]RWK-OH
modifications: lactam 2-7
notes: also called Peptide Structure (Asp...Lys) in the row of No. 11
B17: Asp...Lys analog of peptide No. 19: Ac-Arg-cyclo(Asp-Gln-D-Phe-Arg-Trp-Lys)-NH-cycProp (peptide)
peptide: Ac-RDQ[dF]RWK-NHcPr
modifications: lactam 2-7
notes: also called Peptide Structure (Asp...Lys) in the row of No. 19
B18: Asp...Lys analog of peptides No. 5 and No. 42: Ac-Arg-cyclo(Asp-Dab-D-Phe-Arg-Trp-Lys)-OH (peptide)
peptide: Ac-RD[Dab][dF]RWK-OH
modifications: lactam 2-7
B19: Peptide No. 11: Ac-Arg-cyclo(Glu-Gln-D-Phe-Arg-Trp-Orn)-OH (peptide)
peptide: Ac-REQ[dF]RW[Orn]-OH
modifications: lactam 2-7
B20: Peptide No. 20: Ac-Arg-cyclo(Glu-Asn-D-Phe-Arg-Trp-Orn)-OH (peptide)
peptide: Ac-REN[dF]RW[Orn]-OH
modifications: lactam 2-7
B21: Peptide No. 13: Ac-Arg-cyclo(Glu-Met(O2)-D-Phe-Arg-Trp-Orn)-NH2 (peptide)
peptide: Ac-RE[Met(O2)][dF]RW[Orn]-NH2
modifications: lactam 2-7
B22: Peptide No. 9: Ac-Arg-cyclo(Glu-Arg-D-Phe-Arg-Trp-Orn)-OH (peptide)
peptide: Ac-RER[dF]RW[Orn]-OH
modifications: lactam 2-7
B23: Peptide No. 4: Ac-Arg-cyclo(Glu-His-D-Phe-Arg-Trp-Orn)-NH2 (peptide)
peptide: Ac-REH[dF]RW[Orn]-NH2
modifications: lactam 2-7
B24: Peptide No. 32: Ac-Arg-cyclo(Glu-Pro(4R-NH2)-D-Phe-Arg-Trp-Orn)-NH2 (peptide)
peptide: Ac-RE[Pro(trans-4-NH2)][dF]RW[Orn]-NH2
modifications: lactam 2-7
B25: Peptide No. 10: Ac-Arg-cyclo(Glu-Arg-D-Phe-Arg-Trp-Orn)-NH2 (peptide)
peptide: Ac-RER[dF]RW[Orn]-NH2
modifications: lactam 2-7
B26: Peptide No. 17: Ac-Arg-cyclo(Glu-Ser(Bzl)-D-Phe-Arg-Trp-Orn)-OH (peptide)
peptide: Ac-RE[Ser(Bzl)][dF]RW[Orn]-OH
modifications: lactam 2-7
B27: Peptide No. 16: Ac-Arg-cyclo(Glu-Lys-D-Phe-Arg-Trp-Orn)-NH2 (peptide)
peptide: Ac-REK[dF]RW[Orn]-NH2
modifications: lactam 2-7
B28: Peptide No. 14: Ac-Arg-cyclo(Glu-Hyp-D-Phe-Arg-Trp-Orn)-NH2 (peptide)
peptide: Ac-RE[Hyp][dF]RW[Orn]-NH2
modifications: lactam 2-7
B29: Peptide No. 3: Ac-Arg-cyclo(Glu-His-D-Phe-Arg-Trp-Orn)-OH (peptide)
peptide: Ac-REH[dF]RW[Orn]-OH
modifications: lactam 2-7
B30: Peptide No. 34: Ac-Arg-cyclo(Glu-Asn-D-Phe-Arg-Trp-Orn)-NH2 (peptide)
peptide: Ac-REN[dF]RW[Orn]-NH2
modifications: lactam 2-7
B31: Asp...Lys analog of peptide No. 15: Ac-Arg-cyclo(Asp-Cit-D-Phe-Arg-Trp-Lys)-NH2 (peptide)
peptide: RDXFRWK
modifications: N-terminal acetyl; Cit (citrulline) at 3; D-Phe at 4; side-chain lactam Asp2-Lys7; C-terminal amide (-NH2)
B32: Peptide No. 6: Ac-Arg-cyclo(Glu-Dab-D-Phe-Arg-Trp-Orn)-NH2 (peptide)
peptide: Ac-RE[Dab][dF]RW[Orn]-NH2
modifications: lactam 2-7
B33: Peptide No. 19: Ac-Arg-cyclo(Glu-Gln-D-Phe-Arg-Trp-Orn)-NH-cycProp (peptide)
peptide: Ac-REQ[dF]RW[Orn]-NHcPr
modifications: lactam 2-7
B34: Asp...Lys analog of peptides No. 6 and No. 43: Ac-Arg-cyclo(Asp-Dab-D-Phe-Arg-Trp-Lys)-NH2 (peptide)
peptide: Ac-RD[Dab][dF]RWK-NH2
modifications: lactam 2-7
B35: Peptide No. 12: Ac-Arg-cyclo(Glu-Gln-D-Phe-Arg-Trp-Orn)-NH2 (peptide)
peptide: Ac-REQ[dF]RW[Orn]-NH2
modifications: lactam 2-7
B36: Peptide No. 7: Ac-Arg-cyclo(Glu-Orn-D-Phe-Arg-Trp-Orn)-OH (peptide)
peptide: Ac-RE[Orn][dF]RW[Orn]-OH
modifications: lactam 2-7
B37: Peptide No. 18: Ac-Arg-cyclo(Glu-Dab(Acetyl)-D-Phe-Arg-Trp-Orn)-NH2 (peptide)
peptide: Ac-RE[Dab](Ac)[dF]RW[Orn]-NH2
modifications: lactam 2-7
B38: Asp...Lys analog of peptide No. 7: Ac-Arg-cyclo(Asp-Orn-D-Phe-Arg-Trp-Lys)-OH (peptide)
peptide: Ac-RD[Orn][dF]RWK-OH
modifications: lactam 2-7
B39: Peptide No. 15: Ac-Arg-cyclo(Glu-Cit-D-Phe-Arg-Trp-Orn)-NH2 (peptide)
peptide: Ac-RE[Cit][dF]RW[Orn]-NH2
modifications: lactam 2-7
B40: Asp...Lys analog of peptide No. 8: Ac-Arg-cyclo(Asp-Orn-D-Phe-Arg-Trp-Lys)-NH2 (peptide)
peptide: Ac-RD[Orn][dF]RWK-NH2
modifications: lactam 2-7
B41: Peptide No. 5: Ac-Arg-cyclo(Glu-Dab-D-Phe-Arg-Trp-Orn)-OH (peptide)
peptide: Ac-RE[Dab][dF]RW[Orn]-OH
modifications: lactam 2-7
B42: Asp...Lys analog of peptides No. 4 and No. 38: Ac-Arg-cyclo(Asp-His-D-Phe-Arg-Trp-Lys)-NH2 (peptide)
peptide: Ac-RDH[dF]RWK-NH2
modifications: lactam 2-7
B43: Peptide No. 45: Ac-D-Arg-cyclo(Orn-Gln-D-Phe-Arg-Trp-Glu)-NH2 (peptide)
peptide: Ac-[dR][Orn]Q[dF]RWE-NH2
modifications: lactam 2-7
B44: Asp...Lys analog of peptide No. 39: Ac-D-Arg-cyclo(Asp-His-D-Phe-Arg-Trp-Lys)-NH2 (peptide)
peptide: Ac-[dR]DH[dF]RWK-NH2
modifications: lactam 2-7
B45: Peptide No. 42: Ac-Arg-cyclo(Orn-Dab-D-Phe-Arg-Trp-Glu)-OH (peptide)
peptide: Ac-R[Orn][Dab][dF]RWE-OH
modifications: lactam 2-7

molecular target: T1, human melanocortin-4 receptor (recombinant hMC4-R) (human, UniProt P32245 1-332); assay: cell-based or functional assay
T1 sequence (P32245 whole entry): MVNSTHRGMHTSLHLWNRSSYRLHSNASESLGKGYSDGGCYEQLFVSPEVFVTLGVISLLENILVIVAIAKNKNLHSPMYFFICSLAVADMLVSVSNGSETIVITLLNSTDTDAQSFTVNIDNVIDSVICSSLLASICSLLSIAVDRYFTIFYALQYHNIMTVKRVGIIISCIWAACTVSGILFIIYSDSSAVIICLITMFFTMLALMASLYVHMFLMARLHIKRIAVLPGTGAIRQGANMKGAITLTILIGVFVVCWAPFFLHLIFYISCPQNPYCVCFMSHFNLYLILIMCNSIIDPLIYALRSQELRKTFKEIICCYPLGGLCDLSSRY

Ec50 (nM), cAMP [nM]	Emax (%), cAMP [%]	Binder
0.4	95	B1
0.5	97	B2
532	62	B3
0.1	93	B4
148	35	B5
	69	B6
	91	B7
	97	B8
	61	B9
81	73	B10
	68	B11
27	39	B12
35	29	B13
17	85	B14
	75	B15
19	80	B16
9	79	B17
4	91	B18
	81	B19
12	76	B20
5	71	B21

Ec50 (nM), cAMP [nM]	Emax (%), cAMP [%]	Binder
	82	B22
0.2	83	B23
	55	B24
	98	B25
	55	B26
	104	B27
	104	B28
0.7	83	B29
0.4	91	B30
	69	B31
0.3	94	B32
	91	B33
0.3	91	B34
	96	B35
	92	B36
	75	B37
12	84	B38
	87	B39
0.8	79	B40
	94	B41
	83	B42

molecular target: T1, human melanocortin-4 receptor …; assay: cell-based or functional assay; remark: another data set of the same source

Emax (%), cAMP [%]	Ec50 (nM), cAMP [nM]	Binder
91		B7
85	17	B14
91	4	B18
89		B43
91	0.3	B34
89		B44
100		B45
83		B42

molecular target: T1, human melanocortin-4 receptor …; assay: competition with labelled NDP-α-MSH ([I125] or Eu), hMC4-R HEK-293 membranes
Experimental: After incubation for 60 minutes at 37° C., the assay mixture was filtered and the membranes washed three times with ice-cold buffer. Filters were dried and counted in a gamma counter for bound radioactivity. […] Maximal specific binding (100%) was defined as the difference in radioactivity (cpm) bound to cell membranes in the absence and presence of 1 μM NDP-α-MSH. […] Ki values for test peptides of the present invention were determined using Graph-Pad Prism® curve-fitting software.
After incubation for 90 minutes at 37° C., the reaction was stopped by filtration over AcroWell 96-well filter plates (Pall Life Sciences). The filter plates were washed 4 times with 200 μL of ice-cold phosphate-buffered saline. DELFIA Enhancement solution (PerkinElmer Life Sciences) was added to each well. The plates were incubated on a shaker for 15 minutes and read at 340 nm excitation and 615 nm emission wavelengths. Each assay was conducted in duplicate and mean values were utilized. Ki values were determined by curve-fitting with Graph-Pad Prism® software using a one-site fixed-slope competition binding model.

Ki [nM]	Binder
9	B1
0.1	B4
99	B5
30	B8
5	B9
100	B10
4	B12
7	B13
115	B16
64	B17
167	B20
1	B23
6	B24
6	B26
15	B27
24	B29
6	B30
